For the assay, the target named is T1, ZNRF3 ECD (UniProt Q9ULT6 56-219, limits assumed).
T1 construct: extracellular domain; also called ZNRF3 extracellular domain; fluorescently labeled ZNRF3 ECDs
T1 sequence (looked up): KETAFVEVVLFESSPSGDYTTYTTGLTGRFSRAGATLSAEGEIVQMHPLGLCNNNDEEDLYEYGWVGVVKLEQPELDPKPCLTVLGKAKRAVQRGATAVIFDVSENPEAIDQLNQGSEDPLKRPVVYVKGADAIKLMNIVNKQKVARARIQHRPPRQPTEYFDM
Description: surface plasmon resonance (FIG. 3B).

By Kd is commonly meant a measure of binding affinity in units of concentration.

B1: ZNRF3-specific scFv "Z6" (scFv)
scFv: ASQVQLVQSGAEVKNPGASVKVSCKASGYAFTSYGISWVRQAPGQGLEWMGWISAYTRNTNYAQKFQGRVTLTTDTSTSTAYMELRSLRSDDTAIYYCARDARYSLGVGAFDVWGQGTMVTVSSGILGSGGGGSGGGGSGGGGSETTLTQSPAFMSATPGDKVSISCKASRDIDDDLNWYQQKPGEAAISIIQEATTLVPGIPPRFSGSGYGTDFTLTINNIESEDAAYYFCLQHDDVPYTFGQGTKLEIKSGIL
notes: the display fusion is not described; also called ZNRF3-specific single-chain antibody variable fragment (scFv)
B1 returned a Kd of 80 nM.

The record behind these values is patent publication US20220041753A1 (H LEE MOFFITT CANCER CENTER AND RESEARCH INSTITUTE, published 2022).
